Target: Oligomeric recombinant human Aβ1-42 (human, UniProt P05067)
Test: co-IP

B1: ATP6V0C subunit of V-ATPase from mouse brain (natural protein)
chain: MADIKNNPEYSSFFGVMGASSAMVFSAMGAAYGTAKSGTGIAAMSVMRPELIMKSIIPVVMAGIIAIYGLVVAVLIANSLTDGITLYRSFLQLGAGLSVGLSGLAAGFAIGIVGDAGVRGTAQQPRLFVGMILILIFAEVLGLYGLIVALILSTK
binding result: binds
